Binding signal data for 36 molecules are collected here from article PMC11417369, “DNA sequence and chromatin differentiate sequence-specific transcription factor binding in the human malaria parasite Plasmodium falciparum”.

Experiment in all cases: gcPBM; about 25 ug protein; PBS, 1% milk, 0.2 mg/ml BSA, salmon testes DNA, 0.03% Triton X-100
For series [1], the target named is T1, AP2-G D1 (Plasmodium falciparum, UniProt Q8I5I9 2123-2245).
T1 sequence: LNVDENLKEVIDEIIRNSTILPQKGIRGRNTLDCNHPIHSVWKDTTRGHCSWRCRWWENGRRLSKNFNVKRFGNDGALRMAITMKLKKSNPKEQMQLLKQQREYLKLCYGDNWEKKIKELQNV
The note with it: tags: N-terminal GST (pGEX-4T-1), kept; label: surface-attached array probe.

Series [2] deals with T2, SIP2 D1 (Plasmodium falciparum, UniProt C6KSN9 177-235).
T2 sequence: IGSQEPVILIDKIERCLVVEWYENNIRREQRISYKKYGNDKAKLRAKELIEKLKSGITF
To be noted: tags: N-terminal GST (pGEX-4T-1), kept; label: surface-attached array probe.

In series [3] the target is AP2-I D3 (Plasmodium falciparum, UniProt Q8IJW6 910-1027). The note with it: tags: N-terminal GST (pGEX-4T-1), kept; label: surface-attached array probe.
The target of series [4] is T3, HDP1 homeodomain-like (Plasmodium falciparum, UniProt Q8IKH4 2990-3078).
T3 sequence: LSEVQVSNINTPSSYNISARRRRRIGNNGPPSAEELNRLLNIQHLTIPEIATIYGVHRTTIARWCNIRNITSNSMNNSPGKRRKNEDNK
The note with it: tags: N-terminal GST (pGEX-4T-1), kept; chain copies: 2; label: surface-attached array probe.

B1: XGTACX_site718 (dsDNA)
DNA 1: GTATTAATTTTAAGGTGTACGCAAAAAATTTAATTT
DNA 2: AAATTAAATTTTTTGCGTACACCTTAAAATTAATAC
With B1, the binding signal in series [1] is 13.1 ln median PBM intensity, better of two orientations.

B2: XGTACX_site7025 (dsDNA)
DNA 1: TTTTTCTTTTTTTGGGGTACAGGGAAATCTATATTT
DNA 2: AAATATAGATTTCCCTGTACCCCAAAAAAAGAAAAA
Consider B2, for which the binding signal in series [1] is 12.7 ln median PBM intensity, better of two orientations.

B3: XGTACX_site7745 (dsDNA)
DNA 1: GGGGACGCGGGTGGGGGTACTCACACTATGCAAAAT
DNA 2: ATTTTGCATAGTGTGAGTACCCCCACCCGCGTCCCC
For the molecule B3, in series [1], the binding signal was 13 ln median PBM intensity, better of two orientations.

B4: XGTACX_site3444 (dsDNA)
DNA 1: TATATTATATATTTATGTACGTATTTGTAAAAAGAT
DNA 2: ATCTTTTTACAAATACGTACATAAATATATAATATA
In the case of B4, the binding signal in series [1] is 12.8 ln median PBM intensity, better of two orientations.

B5: XGTACX_site8307 (dsDNA)
DNA 1: AAATTATAAAAATGTAGTACAGACAATATATTCGTA
DNA 2: TACGAATATATTGTCTGTACTACATTTTTATAATTT
For the molecule B5, in series [1], the binding signal is 12.7 ln median PBM intensity, better of two orientations.

B6: XGTACX_site96 (dsDNA)
DNA 1: TGGAACCATAAAAAGTGTACACATATAAAAAATATG
DNA 2: CATATTTTTTATATGTGTACACTTTTTATGGTTCCA
Consider B6, for which the binding signal in series [1] is 12.8 ln median PBM intensity, better of two orientations.

B7: GTGCAC_negctrl_site246 (dsDNA)
DNA 1: TTAATTCTATACATAAATTATGTTTACATAAAGAAT
DNA 2: ATTCTTTATGTAAACATAATTTATGTATAGAATTAA
On to B7, for which the binding signal in series [2] was 6.9 ln median PBM intensity, better of two orientations; in series [3], 7.16 ln median PBM intensity, better of two orientations; in series [4], 6.34 ln median PBM intensity, better of two orientations.

B8: XGTACX_site8426 (dsDNA)
DNA 1: TAATATTTATAATAGTGTACACAATTATAAACTGAA
DNA 2: TTCAGTTTATAATTGTGTACACTATTATAAATATTA
As for B8, in series [1], the binding signal was 12.7 ln median PBM intensity, better of two orientations.

B9: GTGCAC_negctrl_site656 (dsDNA)
DNA 1: ATTATTTATTTATTTTTTTTTTTTTTCTCTTTTCCT
DNA 2: AGGAAAAGAGAAAAAAAAAAAAAATAAATAAATAAT
Turning to B9, the binding signal in series [2] is 6.87 ln median PBM intensity, better of two orientations; in series [3], 6.88 ln median PBM intensity, better of two orientations; in series [4] it was 6.27 ln median PBM intensity, better of two orientations.

B10: XGTACX_site6396 (dsDNA)
DNA 1: CCTATAATTAGGGGTAGTACACAAAAAAAAAAAAAA
DNA 2: TTTTTTTTTTTTTTGTGTACTACCCCTAATTATAGG
Turning to B10, the binding signal in series [1] is 12.8 ln median PBM intensity, better of two orientations.

B11: XGTACX_site146 (dsDNA)
DNA 1: GGACGTATTAAAAGGCGTACACTAAATATTTTATGT
DNA 2: ACATAAAATATTTAGTGTACGCCTTTTAATACGTCC
As for B11, the binding signal in series [1] was 12.8 ln median PBM intensity, better of two orientations.

B12: XGTACX_site1704 (dsDNA)
DNA 1: CTCGTATATATAATACGTACATATTATATATATATA
DNA 2: TATATATATATAATATGTACGTATTATATATACGAG
In the case of B12, the binding signal in series [1] is 12.9 ln median PBM intensity, better of two orientations.

B13: XGTACX_site2251 (dsDNA)
DNA 1: GTGTAAAAATTAAAGTGTACACATATATATATATAT
DNA 2: ATATATATATATATGTGTACACTTTAATTTTTACAC
Turning to B13, in series [1], the binding signal was 12.8 ln median PBM intensity, better of two orientations.

B14: XGTACX_site7607 (dsDNA)
DNA 1: AATATACAATAAAGGTGTACACATATATGATGCAAG
DNA 2: CTTGCATCATATATGTGTACACCTTTATTGTATATT
As to B14, the binding signal in series [1] was 12.8 ln median PBM intensity, better of two orientations.

B15: XGTACX_site4899 (dsDNA)
DNA 1: TATTCGTGCAATAGTAGTACACTTATAAATTATTCT
DNA 2: AGAATAATTTATAAGTGTACTACTATTGCACGAATA
For the molecule B15, the binding signal in series [1] was 12.7 ln median PBM intensity, better of two orientations.

B16: XGTACX_site7325 (dsDNA)
DNA 1: TTTTTTTTATTTTGTTGTACGCTTATTTGTATATAT
DNA 2: ATATATACAAATAAGCGTACAACAAAATAAAAAAAA
Turning to B16, the binding signal in series [1] is 12.8 ln median PBM intensity, better of two orientations.

B17: XGTACX_site7727 (dsDNA)
DNA 1: GGTGTATGTTAAAGGAGTACATATATATATATATAT
DNA 2: ATATATATATATATATGTACTCCTTTAACATACACC
With B17, the binding signal in series [1] is 12.7 ln median PBM intensity, better of two orientations.

B18: XGTACX_site2835 (dsDNA)
DNA 1: GGGGGGATGAGATATTGTACTTTTTAGGAAAGTGTA
DNA 2: TACACTTTCCTAAAAAGTACAATATCTCATCCCCCC
B18: the binding signal in series [1] is 13.2 ln median PBM intensity, better of two orientations.

B19: XGTACX_site4176 (dsDNA)
DNA 1: ATAAATTTAAATAGGAGTACACAGCTTTATATTTTG
DNA 2: CAAAATATAAAGCTGTGTACTCCTATTTAAATTTAT
B19: the binding signal in series [1] was 13 ln median PBM intensity, better of two orientations.

B20: XGTACX_site3596 (dsDNA)
DNA 1: AAGGAAAATTTTTGGTGTACACAAAAAAATCCAAAA
DNA 2: TTTTGGATTTTTTTGTGTACACCAAAAATTTTCCTT
For the molecule B20, in series [1], the binding signal was 12.8 ln median PBM intensity, better of two orientations.

B21: XGTACX_site5457 (dsDNA)
DNA 1: ATGGATAACAATATGTGTACACATTTATATCTCCAC
DNA 2: GTGGAGATATAAATGTGTACACATATTGTTATCCAT
For the molecule B21, in series [1], the binding signal is 12.8 ln median PBM intensity, better of two orientations.

B22: XGTACX_site8267 (dsDNA)
DNA 1: AGATAAATATATTGTAGTACAGGAGCATAAATATAT
DNA 2: ATATATTTATGCTCCTGTACTACAATATATTTATCT
Turning to B22, the binding signal in series [1] is 12.8 ln median PBM intensity, better of two orientations.

B23: XGTACX_site7170 (dsDNA)
DNA 1: GTTTAGATAAAAGGGCGTACATCTATTTTTGACTAA
DNA 2: TTAGTCAAAAATAGATGTACGCCCTTTTATCTAAAC
Turning to B23, in series [1], the binding signal was 12.7 ln median PBM intensity, better of two orientations.

B24: XGTACX_site4991 (dsDNA)
DNA 1: TAAAATAATATATGGTGTACACAAAAGTATAAATAA
DNA 2: TTATTTATACTTTTGTGTACACCATATATTATTTTA
As to B24, in series [1], the binding signal was 13.2 ln median PBM intensity, better of two orientations.

B25: XGTACX_site820 (dsDNA)
DNA 1: ACAATTGAAGAAATACGTACATAAAGAAAAACTAGT
DNA 2: ACTAGTTTTTCTTTATGTACGTATTTCTTCAATTGT
For the molecule B25, the binding signal in series [1] is 12.9 ln median PBM intensity, better of two orientations.

B26: XGTACX_site4340 (dsDNA)
DNA 1: TGATACTTTTTTTGTAGTACTCCTAAAATTATAAAA
DNA 2: TTTTATAATTTTAGGAGTACTACAAAAAAAGTATCA
For B26, the binding signal in series [1] is 12.8 ln median PBM intensity, better of two orientations.

B27: XGTACX_site6887 (dsDNA)
DNA 1: TATTTTCCATGAGGTAGTACACATTAAAAAATCGTT
DNA 2: AACGATTTTTTAATGTGTACTACCTCATGGAAAATA
In the case of B27, the binding signal in series [1] was 12.8 ln median PBM intensity, better of two orientations.

B28: GTGCAC_site10021 (dsDNA)
DNA 1: ATAAAATATATATTAGTGCACTAAAGGAAAAAAAAT
DNA 2: ATTTTTTTTCCTTTAGTGCACTAATATATATTTTAT
Regarding B28, the binding signal in series [2] is 10.4 ln median PBM intensity, better of two orientations; in series [3], 12.4 ln median PBM intensity, better of two orientations; in series [4], 11.6 ln median PBM intensity, better of two orientations.

B29: XGTACX_site3586 (dsDNA)
DNA 1: TATACATACATTAGACGTACACATTTTACCTACACC
DNA 2: GGTGTAGGTAAAATGTGTACGTCTAATGTATGTATA
As for B29, in series [1], the binding signal was 12.8 ln median PBM intensity, better of two orientations.

B30: XGTACX_site6072 (dsDNA)
DNA 1: CGTTTATATTTTAACTGTACTCAAAAAGTGCATTGT
DNA 2: ACAATGCACTTTTTGAGTACAGTTAAAATATAAACG
For the molecule B30, the binding signal in series [1] is 12.7 ln median PBM intensity, better of two orientations.

B31: XGTACX_site6231 (dsDNA)
DNA 1: ATGTTTTATAAAAGGCGTACACATATATTTAAGTAA
DNA 2: TTACTTAAATATATGTGTACGCCTTTTATAAAACAT
Consider B31, for which the binding signal in series [1] was 13.5 ln median PBM intensity, better of two orientations.

B32: XGTACX_site4956 (dsDNA)
DNA 1: AATAAATGGAAAAGGTGTACACAAAAAAAAGGGAAA
DNA 2: TTTCCCTTTTTTTTGTGTACACCTTTTCCATTTATT
B32: the binding signal in series [1] is 12.8 ln median PBM intensity, better of two orientations.

B33: GTGCAC_negctrl_site150 (dsDNA)
DNA 1: TTGTAATAAAGAATTAAAAAAAAATATATACAGGTA
DNA 2: TACCTGTATATATTTTTTTTTAATTCTTTATTACAA
As for B33, the binding signal in series [2] is 6.9 ln median PBM intensity, better of two orientations; in series [3], 7.17 ln median PBM intensity, better of two orientations; in series [4], 6.31 ln median PBM intensity, better of two orientations.

B34: XGTACX_site3301 (dsDNA)
DNA 1: TTTTCTTTTTGTTCGTGTACACACATGAAATTTATA
DNA 2: TATAAATTTCATGTGTGTACACGAACAAAAAGAAAA
In the case of B34, the binding signal in series [1] is 13 ln median PBM intensity, better of two orientations.

B35: XGTACX_site3746 (dsDNA)
DNA 1: ATATAAAATATTACGTGTACACATAAATAAAAATAA
DNA 2: TTATTTTTATTTATGTGTACACGTAATATTTTATAT
Consider B35, for which the binding signal in series [1] is 13 ln median PBM intensity, better of two orientations.

B36: XGTACX_site5429 (dsDNA)
DNA 1: ATGGACATCTATTGTTGTACACATTTTCCCATAACA
DNA 2: TGTTATGGGAAAATGTGTACAACAATAGATGTCCAT
Regarding B36, the binding signal in series [1] is 13.1 ln median PBM intensity, better of two orientations.
